According to US20060234940:

B1: DP IV activity of the human serum (protein)
chain: SRKTYTLTDYLKNTYRLKLYSLRWISDHEYLYKQENNILVFNAEYGNSSVFLENSTFDEFGHSINDYSISPDGQFILLEYNYVKQWRHSYTASYDIYDLNKRQLITEERIPNNTQWVTWSPVGHKLAYVWNNDIYVKIEPNLPSYRITWTGKEDIIYNGITDWVYEEEVFSAYSALWWSPNGTFLAYAQFNDTEVPLIEYSFYSDESLQYPKTVRVPYPKAGAVNPTVKFFVVNTDSLSSVTNATSIQITAPASMLIGDHYLCDVTWATQERISLQWLRRIQNYSVMDICDYDESSGRWNCLVARQHIEMSTTGWVGRFRPSEPHFTLDGNSFYKIISNEEGYRHICYFQIDKKDCTFITKGTWEVIGIEALTSDYLYYISNEYKGMPGGRNLYKIQLSDYTKVTCLSCELNPERCQYYSVSFSKEAKYYQLRCSGPGLPLYTLHSSVNDKGLRVLEDNSALDKMLQNVQMPSKKLDFIILNETKFWYQMILPPHFDKSKKYPLLLDVYAGPCSQKADTVFRLNWATYLASTENIIVASFDGRGSGYQGDKIMHAINRRLGTFEVEDQIEAARQFSKMGFVDNKRIAIWGWSYGGYVTSMVLGSGSGVFKCGIAVAPVSRWEYYDSVYTERYMGLPTPEDNLDHYRNSTVMSRAENFKQVEYLLIHGTADDNVHFQQSAQISKALVDVGVDFQAMWYTDEDHGIASSTAHQHIYTHMSHFIKQCFSLP
B2: porcine kidney DP IV, wild type (protein)
chain: DSRRTYTLTDYLKSTFRVKFYTLQWISDHEYLYKQENNILLFNAEYGNSSIFLENSTFDELGYSTNDYSVSPDRQFILFEYNYVKQWRHSYTASYDIYDLNKRQLITEERIPNNTQWITWSPVGHKLAYVWNNDIYVKNEPNLSSQRITWTGKENVIYNGVTDWVYEEEVFSAYSALWWSPNGTFLAYAQFNDTEVPLIEYSFYSDESLQYPKTVRIPYPKAGAENPTVKFFVVDTRTLSPNASVTSYQIVPPASVLIGDHYLCGVTWVTEERISLQWIRRAQNYSIIDICDYDESTGRWISSVARQHIEISTTGWVGRFRPAEPHFTSDGNSFYKIISNEEGYKHICHFQTDKSNCTFITKGAWEVIGIEALTSDYLYYISNEHKGMPGGRNLYRIQLNDYTKVTCLSCELNPERCQYYSASFSNKAKYYQLRCFGPGLPLYTLHSSSSDKELRVLEDNSALDKMLQDVQMPSKKLDVINLHGTKFWYQMILPPHFDKSKKYPLLIEVYAGPCSQKVDTVFRLSWATYLASTENIIVASFDGRGSGYQGDKIMHAINRRLGTFEVEDQIEATRQFSKMGFVDDKRIAIWGWSYGGYVTSMVLGAGSGVFKCGIAVAPVSKWEYYDSVYTERYMGLPTPEDNLDYYRNSTVMSRAENFKQVEYLLIHGTADDNVHFQQSAQLSKALVDAGVDFQTMWYTDEDHGIASNMAHQHIYTHMSHFLKQCFSLP

Biological target: peptides of the growth hormone releasing factor (GRF) family

Protein | hydrolysis (MALDI-TOF MS, capillary zone electrophoresis)
B1 | All peptides were hydrolyzed by porcine DP IV, recombinant human DP IV or DP IV activity of the human serum
B2 | All peptides were hydrolyzed by porcine DP IV, recombinant human DP IV or DP IV activity of the human serum
